The results in this text go back to US20180155451A1 (published 2018).

The target in this assay is T1, FcγRIa extracellular domain with C-terminal His tag (human, UniProt P12314 16-292).
T1 construct: extracellular domain; Expressed in FreeStyle293 cells; analyte in Biacore; also called FcgRI; FcgRIa
Put plainly: SPR Biacore, antibody captured, FcγRIa analyte; vs GpH7-A5/GpH7-B3/GpL16-k0 = 100. For orientation: Surface plasmon resonance follows binding to a sensor surface in real time, without labels.

T1 sequence (P12314 16-292): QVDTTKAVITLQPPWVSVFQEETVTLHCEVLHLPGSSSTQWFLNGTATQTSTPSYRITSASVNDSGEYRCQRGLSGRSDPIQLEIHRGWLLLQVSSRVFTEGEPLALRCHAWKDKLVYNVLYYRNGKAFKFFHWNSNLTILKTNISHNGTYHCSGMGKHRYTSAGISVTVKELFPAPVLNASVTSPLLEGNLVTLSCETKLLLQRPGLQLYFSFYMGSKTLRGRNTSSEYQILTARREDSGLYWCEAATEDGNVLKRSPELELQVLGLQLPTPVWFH

B1: GpH7-A5/GpH7-B3 variant I336_03V/GpL16-k0 (He Ab) (antibody, human IgG1, kappa)
heavy 1: not shown
heavy 2: not shown
light: DIVMTQSPLSLPVTPGEPASISCQASESLVHSNRNTYLHWYLQKPGQSPQLLIYKVSNRFSGVPDRFSGSGSGTDFTLKISRVEAEDVGVYYCSQNTHVPPTFGQGTKVEIERTVAAPSVFIFPPSDEQLKSGTASVVCLLNNFYPREAKVQWKVDNALQSGNSQESVTEQDSKDSTYSLSSTLTLSKADYEKHKVYACEVTHQGLSSPVTKSFNRGEC
notes: He Ab: alteration only in the GpH7-B3 chain
With B1, the He/Con_1a was 105 relative (control = 100).

B2: GpH7-A5/GpH7-B3 variant K326_14T/GpL16-k0 (He Ab) (antibody, human IgG1, kappa)
heavy 1: not shown
heavy 2: not shown
light: DIVMTQSPLSLPVTPGEPASISCQASESLVHSNRNTYLHWYLQKPGQSPQLLIYKVSNRFSGVPDRFSGSGSGTDFTLKISRVEAEDVGVYYCSQNTHVPPTFGQGTKVEIERTVAAPSVFIFPPSDEQLKSGTASVVCLLNNFYPREAKVQWKVDNALQSGNSQESVTEQDSKDSTYSLSSTLTLSKADYEKHKVYACEVTHQGLSSPVTKSFNRGEC
notes: as for B1
B2: the He/Con_1a is 104 relative (control = 100).

B3: GpH7-A5/GpH7-B3 variant P271_13S/GpL16-k0 (He Ab) (antibody, human IgG1, kappa)
heavy 1: not shown
heavy 2: not shown
light: DIVMTQSPLSLPVTPGEPASISCQASESLVHSNRNTYLHWYLQKPGQSPQLLIYKVSNRFSGVPDRFSGSGSGTDFTLKISRVEAEDVGVYYCSQNTHVPPTFGQGTKVEIERTVAAPSVFIFPPSDEQLKSGTASVVCLLNNFYPREAKVQWKVDNALQSGNSQESVTEQDSKDSTYSLSSTLTLSKADYEKHKVYACEVTHQGLSSPVTKSFNRGEC
notes: as for B1
For the molecule B3, the He/Con_1a is 102 relative (control = 100).

B4: GpH7-A5/GpH7-B3 variant P271_20W/GpL16-k0 (He Ab) (antibody, human IgG1, kappa)
heavy 1: not shown
heavy 2: not shown
light: DIVMTQSPLSLPVTPGEPASISCQASESLVHSNRNTYLHWYLQKPGQSPQLLIYKVSNRFSGVPDRFSGSGSGTDFTLKISRVEAEDVGVYYCSQNTHVPPTFGQGTKVEIERTVAAPSVFIFPPSDEQLKSGTASVVCLLNNFYPREAKVQWKVDNALQSGNSQESVTEQDSKDSTYSLSSTLTLSKADYEKHKVYACEVTHQGLSSPVTKSFNRGEC
notes: as for B1
For B4, the He/Con_1a was 103 relative (control = 100).

B5: GpH7-A5/GpH7-B3 variant P271_04F/GpL16-k0 (He Ab) (antibody, human IgG1, kappa)
heavy 1: not shown
heavy 2: not shown
light: DIVMTQSPLSLPVTPGEPASISCQASESLVHSNRNTYLHWYLQKPGQSPQLLIYKVSNRFSGVPDRFSGSGSGTDFTLKISRVEAEDVGVYYCSQNTHVPPTFGQGTKVEIERTVAAPSVFIFPPSDEQLKSGTASVVCLLNNFYPREAKVQWKVDNALQSGNSQESVTEQDSKDSTYSLSSTLTLSKADYEKHKVYACEVTHQGLSSPVTKSFNRGEC
notes: as for B1
B5: the He/Con_1a is 102 relative (control = 100).

B6: GpH7-A5/GpH7-B3 variant P271_07I/GpL16-k0 (He Ab) (antibody, human IgG1, kappa)
heavy 1: not shown
heavy 2: not shown
light: DIVMTQSPLSLPVTPGEPASISCQASESLVHSNRNTYLHWYLQKPGQSPQLLIYKVSNRFSGVPDRFSGSGSGTDFTLKISRVEAEDVGVYYCSQNTHVPPTFGQGTKVEIERTVAAPSVFIFPPSDEQLKSGTASVVCLLNNFYPREAKVQWKVDNALQSGNSQESVTEQDSKDSTYSLSSTLTLSKADYEKHKVYACEVTHQGLSSPVTKSFNRGEC
notes: as for B1
Regarding B6, the He/Con_1a is 102 relative (control = 100).

B7: GpH7-A5/GpH7-B3 variant I336_04F/GpL16-k0 (He Ab) (antibody, human IgG1, kappa)
heavy 1: not shown
heavy 2: not shown
light: DIVMTQSPLSLPVTPGEPASISCQASESLVHSNRNTYLHWYLQKPGQSPQLLIYKVSNRFSGVPDRFSGSGSGTDFTLKISRVEAEDVGVYYCSQNTHVPPTFGQGTKVEIERTVAAPSVFIFPPSDEQLKSGTASVVCLLNNFYPREAKVQWKVDNALQSGNSQESVTEQDSKDSTYSLSSTLTLSKADYEKHKVYACEVTHQGLSSPVTKSFNRGEC
notes: as for B1
Consider B7, for which the He/Con_1a is 106 relative (control = 100).

B8: GpH7-A5/GpH7-B3 variant I336_01G/GpL16-k0 (He Ab) (antibody, human IgG1, kappa)
heavy 1: not shown
heavy 2: not shown
light: DIVMTQSPLSLPVTPGEPASISCQASESLVHSNRNTYLHWYLQKPGQSPQLLIYKVSNRFSGVPDRFSGSGSGTDFTLKISRVEAEDVGVYYCSQNTHVPPTFGQGTKVEIERTVAAPSVFIFPPSDEQLKSGTASVVCLLNNFYPREAKVQWKVDNALQSGNSQESVTEQDSKDSTYSLSSTLTLSKADYEKHKVYACEVTHQGLSSPVTKSFNRGEC
notes: as for B1
For B8, the He/Con_1a is 109 relative (control = 100).

B9: GpH7-A5/GpH7-B3 variant P271_06M/GpL16-k0 (He Ab) (antibody, human IgG1, kappa)
heavy 1: not shown
heavy 2: not shown
light: DIVMTQSPLSLPVTPGEPASISCQASESLVHSNRNTYLHWYLQKPGQSPQLLIYKVSNRFSGVPDRFSGSGSGTDFTLKISRVEAEDVGVYYCSQNTHVPPTFGQGTKVEIERTVAAPSVFIFPPSDEQLKSGTASVVCLLNNFYPREAKVQWKVDNALQSGNSQESVTEQDSKDSTYSLSSTLTLSKADYEKHKVYACEVTHQGLSSPVTKSFNRGEC
notes: as for B1
On to B9, for which the He/Con_1a is 102 relative (control = 100).

B10: GpH7-A5/GpH7-B3 variant I336_06M/GpL16-k0 (He Ab) (antibody, human IgG1, kappa)
heavy 1: not shown
heavy 2: not shown
light: DIVMTQSPLSLPVTPGEPASISCQASESLVHSNRNTYLHWYLQKPGQSPQLLIYKVSNRFSGVPDRFSGSGSGTDFTLKISRVEAEDVGVYYCSQNTHVPPTFGQGTKVEIERTVAAPSVFIFPPSDEQLKSGTASVVCLLNNFYPREAKVQWKVDNALQSGNSQESVTEQDSKDSTYSLSSTLTLSKADYEKHKVYACEVTHQGLSSPVTKSFNRGEC
notes: as for B1
On to B10, for which the He/Con_1a was 108 relative (control = 100).

B11: GpH7-A5/GpH7-B3 variant P271_11K/GpL16-k0 (He Ab) (antibody, human IgG1, kappa)
heavy 1: not shown
heavy 2: not shown
light: DIVMTQSPLSLPVTPGEPASISCQASESLVHSNRNTYLHWYLQKPGQSPQLLIYKVSNRFSGVPDRFSGSGSGTDFTLKISRVEAEDVGVYYCSQNTHVPPTFGQGTKVEIERTVAAPSVFIFPPSDEQLKSGTASVVCLLNNFYPREAKVQWKVDNALQSGNSQESVTEQDSKDSTYSLSSTLTLSKADYEKHKVYACEVTHQGLSSPVTKSFNRGEC
notes: as for B1
As to B11, the He/Con_1a was 103 relative (control = 100).
